The results in this text go back to PMC12646314, “Structure and encapsulation of carbonic anhydrase within the α-carboxysome” (Proceedings of the National Academy of Sciences of the …, 2025).

Data set [1] deals with the molecule itself. Nature of the data set: cryo-EM structure; single-particle cryo-EM of purified T = 4 minishell/CsoSCA^ΔC (2.36 Å symmetry relaxed) and minishell/CsoSCA-C (3.05 Å); internal density seen at low contour, disordered.
Data set [2] addresses T1, CsoS4A-CsoS1A minishell (Construct 4, S4A-S1A) (Halothiobacillus neapolitanus, UniProt O85043 1-83; P45689 1-98).
T1 construct: CsoS4A, shell pentamer of H. neapolitanus; CsoS1A, major shell hexamer of H. neapolitanus; Icosahedral shells, T = 3 and T = 4 populations; also called minishells; mini-α-shells; source: E. coli TOP10, purified (sucrose cushion and gradient, HiTrap Q FF anion exchange)
T1 sequence 1: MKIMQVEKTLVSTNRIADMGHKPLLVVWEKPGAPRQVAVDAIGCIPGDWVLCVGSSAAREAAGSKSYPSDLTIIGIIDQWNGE
T1 sequence 2: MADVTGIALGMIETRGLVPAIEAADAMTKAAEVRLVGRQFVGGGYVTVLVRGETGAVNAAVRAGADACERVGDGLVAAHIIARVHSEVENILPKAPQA
Nature of the data set: co-purification with assembled minishells (sucrose cushion and gradient, anion exchange), immunoblot; CsoSCA constructs coexpressed with minishell constructs in E. coli TOP10; minishells purified; samples normalised to CsoS1A; anti-His blot. The settings on record: partners not purified.

Data set [3] deals with the molecule itself. In words: SEC-MALS; Superdex 200 Increase 10/300 GL, 0.70 mL/min, Buffer W (100 mM Tris/HCl pH 8, 150 mM NaCl, 1 mM EDTA), room temperature; injected at 5.6 mg/mL (CsoSCA), 0.9 mg/mL (CsoSCA-N), 1 mg/mL (CsoSCA^ΔC), 1.9 mg/mL (CsoSCA-C).

Where only a bound is given, the exact number is not on record here.

B1: CsoS1A (the major shell hexamer) (natural protein, Halothiobacillus neapolitanus)
chain: MADVTGIALGMIETRGLVPAIEAADAMTKAAEVRLVGRQFVGGGYVTVLVRGETGAVNAAVRAGADACERVGDGLVAAHIIARVHSEVENILPKAPQA
notes: CsoS1A, major alpha-carboxysome shell protein of H. neapolitanus; also called CsoS1A shell hexamer; source: E. coli TOP10, expressed from the minishell construct; in lysate (pull-down) and in purified minishells (cryo-EM)
As for B1, the “stoichiometry N” value in data set [1] stood at 6.

B2: CsoSCA-His6 (CsoSCA fused to a C-terminal His6 tag) (enzyme, Halothiobacillus neapolitanus, UniProt O85042 1-514, looked up)
chain: MNTRNTRSKQRAPFGVSSSVKPRLDLIEQAPNPAYDRHPACITLPERTCRHPLTDLEANEQLGRCEDSVKNRFDRVIPFLQVVAGIPLGLDYVTRVQELAQSSLGHTLPEELLKDNWISGHNLKGIFGYATAKALTAATEQFSRKIMSEKDDSASAIGFFLDCGFHAVDISPCADGRLKGLLPYILRLPLTAFTYRKAYAGSMFDIEDDLAQWEKNELRRYREGVPNTADQPTRYLKIAVYHFSTSDPTHSGCAAHGSNDRAALEAALTQLMKFREAVENAHCCGASIDILLIGVDTDTDAIRVHIPDSKGFLNPYRYVDNTVTYAQTLHLAPDEARVIIHEAILNANRSDGWAKGNGVASEGMRRFIGQLLINNLSQIDYVVNRHGGRYPPNDIGHAERYISVGDGFDEVQIRNLAYYAHLDTVEENAIDVDVGIKIFTKLNLSRGLPIPIAIHYRYDPNVPGSRERTVVKARRIYNAIKERFSSLDEQNLLQFRLSVQAQDIGSPIEEVASA
notes: CsoSCA of H. neapolitanus, UniProt O85042; called full-length CsoSCA in the discussion; also called full-length CsoSCA; source: E. coli TOP10, coexpressed with minishell constructs, co-purified with minishells; not shown: His6, C-terminal, kept
Regarding B2, the “fold copurified CsoSCA, against minishells with CsoS2” value in data set [2] is at least 4 fold.

B3: Twin-Strep-GB1-CsoSCA (Halothiobacillus neapolitanus carboxysomal carbonic anhydrase) (enzyme)
chain: NTRNTRSKQRAPFGVSSSVKPRLDLIEQAPNPAYDRHPACITLPERTCRHPLTDLEANEQLGRCEDSVKNRFDRVIPFLQVVAGIPLGLDYVTRVQELAQSSLGHTLPEELLKDNWISGHNLKGIFGYATAKALTAATEQFSRKIMSEKDDSASAIGFFLDCGFHAVDISPCADGRLKGLLPYILRLPLTAFTYRKAYAGSMFDIEDDLAQWEKNELRRYREGVPNTADQPTRYLKIAVYHFSTSDPTHSGCAAHGSNDRAALEAALTQLMKFREAVENAHCCGASIDILLIGVDTDTDAIRVHIPDSKGFLNPYRYVDNTVTYAQTLHLAPDEARVIIHEAILNANRSDGWAKGNGVASEGMRRFIGQLLINNLSQIDYVVNRHGGRYPPNDIGHAERYISVGDGFDEVQIRNLAYYAHLDTVEENAIDVDVGIKIFTKLNLSRGLPIPIAIHYRYDPNVPGSRERTVVKARRIYNAIKERFSSLDEQNLLQFRLSVQAQDIGSPIEEVASA
notes: CsoSCA, alpha-carboxysomal beta-class carbonic anhydrase of Halothiobacillus neapolitanus; UniProt O85042; the domain scheme runs from residue 1 to 514; Vector pETM11; TEV protease was used to remove the tags only for DLS; also called HnCsoSCA; source: Superdex 200 for cryo-EM; not shown: Twin-Strep, N-terminal, kept
Take B3: the “stoichiometry N” value in data set [3] worked out at 6.

B4: CsoS4A (shell pentamer) (natural protein, Halothiobacillus neapolitanus)
chain: MKIMQVEKTLVSTNRIADMGHKPLLVVWEKPGAPRQVAVDAIGCIPGDWVLCVGSSAAREAAGSKSYPSDLTIIGIIDQWNGE
notes: CsoS4A, alpha-carboxysome shell vertex protein of H. neapolitanus; also called CsoS4A pentamer; source: E. coli TOP10, expressed from the minishell construct, in purified minishells
For the molecule B4, the “stoichiometry N” value in data set [1] worked out at 5.
